Assays:
EYFP-Rev (HIV-1) [1] = target: EYFP-Rev (HIV-1) (UniProt P04618); experiment: FRET Rev-multimerization assay, purified proteins mixed
EYFP-Rev (HIV-1) [2] = target: EYFP-Rev (HIV-1) (UniProt P04618); experiment: FRET Rev-multimerization assay, negative control ECFP + EYFP-Rev

Sequence of EYFP-Rev (HIV-1) (P04618 whole entry): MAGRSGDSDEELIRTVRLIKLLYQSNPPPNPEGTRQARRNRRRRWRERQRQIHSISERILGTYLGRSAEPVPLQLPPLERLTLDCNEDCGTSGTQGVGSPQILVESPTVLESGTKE

| Substance | FRET efficiency (EYFP-Rev (HIV-1) [1]) | FRET efficiency (EYFP-Rev (HIV-1) [2]) |
| --- | --- | --- |
| ECFP-Rev (from UniProt P04618 1-116) | 20 to 35% | – |
| free ECFP | – | 1.6% |

From patent publication WO2009147196A1
